Molecular target: T1, N1-525 with an Histidine tag (full length measles virus nucleoprotein, Edmonston strain) (measles virus (Edmonston strain), UniProt P0DXN6 1-525)
T1 construct: also called full length N
T1 sequence: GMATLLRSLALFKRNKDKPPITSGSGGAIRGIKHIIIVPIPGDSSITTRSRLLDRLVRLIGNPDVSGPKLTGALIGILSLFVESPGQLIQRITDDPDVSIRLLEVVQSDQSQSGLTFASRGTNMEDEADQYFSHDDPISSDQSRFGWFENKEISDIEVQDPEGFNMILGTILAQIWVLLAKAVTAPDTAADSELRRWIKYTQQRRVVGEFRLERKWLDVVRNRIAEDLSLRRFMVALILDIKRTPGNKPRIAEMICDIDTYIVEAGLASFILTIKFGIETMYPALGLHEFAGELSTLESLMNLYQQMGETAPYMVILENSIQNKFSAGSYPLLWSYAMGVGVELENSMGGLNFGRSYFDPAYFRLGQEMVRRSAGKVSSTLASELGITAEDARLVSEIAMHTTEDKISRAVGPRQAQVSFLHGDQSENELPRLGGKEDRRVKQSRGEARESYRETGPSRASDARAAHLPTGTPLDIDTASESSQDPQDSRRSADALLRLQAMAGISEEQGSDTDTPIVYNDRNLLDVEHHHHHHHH
Test: co-expression, TEV cleavage, SAXS and SEC-MALLS

B1: P1-50 with a TEV peptide amino acid sequence (first 50 amino acids of measles virus phosphoprotein, Edmonston strain, after TEV cleavage) (peptide)
peptide: MAEEQARHVKNGLECIRALKAEPIGSLAIEEAMAAWSEISDNPGQERATCENLYFQN
notes: Produced as a P1-50-TEV site-N fusion in E. coli and cleaved with TEV; also called P1-50 peptide; minimal P peptide
binding result: binds

— US20190292229A1 (COMMISSARIAT A L ENERGIE ATOMIQUE ET AUX ENERGIES …, published 2019)
